For one substance, Kd results are on record in patent US20160159921A1.

The target of one test is FcγRIIIa (F) variant (UniProt P08637). The experiment in a line: SPR (ProteOn XPR36), antibody captured on immobilized HER-2, FcγR as analyte, 1:1 Langmuir fit.
Another test addresses FcγRIIb (UniProt P31994). The test is described as above.
Chain of UniProt P31994 (P31994 43-217 limits assumed): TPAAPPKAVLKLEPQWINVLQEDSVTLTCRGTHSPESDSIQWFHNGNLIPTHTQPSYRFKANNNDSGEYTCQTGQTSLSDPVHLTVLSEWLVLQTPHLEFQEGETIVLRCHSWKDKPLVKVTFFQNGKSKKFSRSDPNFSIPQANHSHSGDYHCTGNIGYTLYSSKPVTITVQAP

Chain of UniProt P08637 (P08637 17-208 limits assumed, change not shown): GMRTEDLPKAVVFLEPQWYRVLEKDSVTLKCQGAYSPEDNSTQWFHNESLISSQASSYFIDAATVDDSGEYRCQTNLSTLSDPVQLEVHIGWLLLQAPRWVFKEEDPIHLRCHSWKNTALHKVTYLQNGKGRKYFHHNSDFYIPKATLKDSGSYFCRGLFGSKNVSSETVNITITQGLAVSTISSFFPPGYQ

Turning to “Trastuzumab variant G237F/S298A/A330L/I332E (antibody)”, the values for the Kd with FcγRIIIa (F) variant and with FcγRIIb were 0.429 µM and 7.63 µM, respectively.
